The record followed here is the supplement of paper PMC12042874.

The series can be described thus: amyloid nucleation score (Sup35N fusion, yeast selection) (log enrichment); library NNK2; higher = more nucleation; inactive = no reads after selection. In short, it runs like this: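 Nucleation score is defined as the DiMSum log enrichment of output over input reads, with centring on the mode score of non-aggregating sequences. A minimum of 100 input reads was required for each sequence. Reads came from Illumina sequencing of plasmid inserts from psi-negative yeast expressing Sup35N fused to peptides of 20 random codons, induced with 100 μM copper sulfate for 24 hours and grown 7 days at 30°C on medium lacking adenine and uracil.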

± gives the uncertainty stated by the source.

Turning to QFSLMRAIFMWASPRSWLLD, the amyloid nucleation score entry is “inactive”. For DCTLAVLFYKTEFITPRAQW, the amyloid nucleation score was 2.28 ± 0.14.

Turning to SCFLNMTLILDLVITGMMPR, the amyloid nucleation score is -0.251 ± 0.32. Next, NCGLWNISMCPGDNLSSWDG: 7.46 ± 0.039; TTRYANWNMNINLGL: 6.613 ± 0.046; KWFSIMRPVRLVRFHWTGSN: 3.63 ± 0.089.

Turning to MRFSCWADIVRGDLIPHFVV, the amyloid nucleation score is 2.84 ± 0.09.

Take CFCMINTCYSVINSFTYYGK: the amyloid nucleation score was 8.047 ± 0.066.

In turn, LQHYDLGSCSCRWVLVTSDK yielded an amyloid nucleation score of 0.584 ± 0.22. Next, LRYRVMT: 1.23 ± 0.52. As for LNALIHYVER, the figure is 0.842 ± 0.42. As for ALKSCVLNDKVRRFLAWRLG, the figure is -0.183 ± 0.54; as for VMFSVDHRLTQ, -0.354 ± 0.35; as for SREINITLGKTFYPSRMYGV, 4.48 ± 0.05.

GGTSLRNTLGICLNYLQS: the amyloid nucleation score result was “inactive”. Next, FIDIKSICCRHMNDWHCLSE: -0.603 ± 0.32. As for VRLSWCNMFNRVFPI, the figure is 0.3 ± 0.8. Next, SFTCLLSFKQSCHSFMPCPC: 1.03 ± 0.32; MMVYKGMPVLPCEYRVLY: -0.199 ± 0.36; SCCCYMIGKGIPQM: 0.394 ± 0.3. The substance FHDNVTQFFISISAKIYKA showed an amyloid nucleation score of 4.45 ± 0.058.

Regarding HYVIVNIICCSDVGVLSRDR, the amyloid nucleation score was 9.454 ± 0.069. As for LWVSSSLSL, the figure is -0.74 ± 0.45; as for IPGVLLTYVIISRAPGGIPD, -0.545 ± 0.64; as for TLGTFVWVFRSFTCLLLEEQ, 3.29 ± 0.057. For FCRIAATTRHMHGGLVGRWS, the amyloid nucleation score came to 1.04 ± 0.68.

On to NMFLFLCVRVCGVAFDKGKV, for which the amyloid nucleation score was found to be 2.28 ± 0.13. As for YRGSGLMNTSDFVSVLALVN, the entry is “inactive”. In turn, SWNTVVFSGKDNSILGVLAQ returned an amyloid nucleation score of -0.176 ± 0.45.

For the substance YWLVRMVHGRAWPIFEENCQ, the amyloid nucleation score was -0.01 ± 1. As for WTMMYCTNACYDRYICNYRA, the figure is -0.038 ± 1.1; as for RNSLEFTDTRCNQPGQCESG, 0.641 ± 0.4.

GIGAQINHSVPLRGGKPRAL displayed an amyloid nucleation score of -0.406 ± 1.1. As for SYNKMMVDRFKYADLRDVRA, the figure is 1.03 ± 0.38; as for CSIPCCVGHTLSLGRQFVFV, 0.13 ± 0.43; as for FMSRTWLAYFTCKMLHGLLR, 0.863 ± 0.41.

IPASDRYKVFRLWHQFRLVG: the amyloid nucleation score is -0.001 ± 0.56. Next, SSLFYERRIQLCVFI: 3.63 ± 0.077; TYVSKIWMKRCESDILRKVI: “inactive”; LRSQSHR: 1.31 ± 0.33. Next, LRTSSSYSFLEYIRS: -1.08 ± 1; RLNAMEESIKSNIYSFWSFY: “inactive”; ESRGSCSIKNYRLVWDC: -0.451 ± 0.74. Next, SWDHDYCGRWWCSNARGKIN: 4.3 ± 0.07. In turn, KTNSIPYSMVS showed an amyloid nucleation score of -0.113 ± 1.1. As for WGRWAVSFYGLREDSLLSLG, the figure is -0.324 ± 0.53. For the substance FPAQPAVRSRSACWYVLQVR, the amyloid nucleation score amounted to 0.111 ± 0.49. Next, FSLFCPWRKWLLDEVFM: 0.5 ± 0.27.

For the substance EIMSFSVRSKYAFWIPIAIC, the amyloid nucleation score was -0.026 ± 0.53. As for PMFNEHRFSR, the figure is 2.37 ± 0.1; as for LAIDIMPFPCDTLS, -0.289 ± 0.26. Next, GNGRHC: -0.021 ± 0.21; VLSSHRFNEAKMN: -0.366 ± 0.41. As for DGMSRSVRKNCEAGCRRSFG, the figure is 4.58 ± 0.048. Substance RGSVVLNSVWVMLDMYCLLP had an amyloid nucleation score of 1.82 ± 0.28. Next, QFSLLDHITCQPLPTLFLS: 7.91 ± 0.065. Next, NPEDPQSMLLVVGCVEKN: 0.214 ± 0.54; FPMFSYTSMHYGH: 1.83 ± 0.17; EDKLFINLSRELVFGKIRPT: 6.138 ± 0.053. As for LVTARQLARI, the figure is 0.121 ± 0.24; as for FGFSEGEMVPSFI, -1.21 ± 1; as for WYMKILFGKRFSFGGVVSIF, 3.74 ± 0.11. Consider EYRYCMTHYYFLRCKLFNIF, for which the amyloid nucleation score was -1.06 ± 0.63. The substance LNDGPEGTCWSPNGVNSLLH gave an amyloid nucleation score of -0.382 ± 0.76. Next, NVIMMDLWVDLAFKSLGYG: 6.291 ± 0.046; AIRGTECYWLAWVGLAVKRR: 1.12 ± 0.23; SCVGTN: -0.062 ± 0.55. As for ANYTCTLTSL, the figure is -0.056 ± 0.21. Next, YGLAC: 2.44 ± 0.072; VHQFADFNKIMNGLDDLLLK: 2.65 ± 0.081. QMMLLTV displayed an amyloid nucleation score of -0.214 ± 1.1. As for CLPGSH, the figure is 0.535 ± 0.74; as for RGALALLVRDAMFFCSLSGF, 4.41 ± 0.1. Regarding TDASYNRMVTYFKWIISGYR, the amyloid nucleation score is -1.39 ± 0.54.

KYNQPIMNSSSRGADCGCVR displayed an amyloid nucleation score of 4.16 ± 0.07. IIRRF: the amyloid nucleation score was 0.28 ± 0.33. As to TTILEL, the amyloid nucleation score was -0.305 ± 0.79.

Consider VHLSKDLCYLLSGYGYFPCF, for which the amyloid nucleation score is -0.216 ± 0.36. For VNQLYWILCAYMVLCVGRDA, the amyloid nucleation score stood at 4.54 ± 0.093. As for SLLRIRQYVVWRLG, the figure is 0.079 ± 0.6; as for VVDTGFQRTGKSWIINDRGM, 0.253 ± 0.14. Substance IHPRSFRNVCLSSHSEMGG returned an amyloid nucleation score of -0.813 ± 0.76. As for SGRHVNVLYYNFNGPDDQFK, the figure is 6.866 ± 0.029; as for IPVSMWQDRVTEVLDFGLRK, 0.389 ± 0.8; as for GSLMHEFAH, -0.698 ± 0.78. In turn, PHDVFRWCVCAVPGSERSTG returned an amyloid nucleation score of 0.815 ± 0.25. Next, STQYPTMVERLS: 1.75 ± 0.3. As for TSTCNRRVIWMHLEPGELCV, the figure is -0.375 ± 0.76; as for RVSQHGEVPSTCFSK, 1.39 ± 0.38; as for HSLMQLYLVIFLAHFQSYGL, 0.604 ± 0.44.

Consider FVFLVYYFSEFIH, for which the amyloid nucleation score result was “inactive”. As for LAYPMISVFYHELIIDLRSM, the figure is 3.92 ± 0.11; as for FRKSFHIYIVELYMDDHPLM, “inactive”; as for WDNLNDFHN, -1.35 ± 1.1. As to IRLTRY, the amyloid nucleation score is -0.338 ± 0.35. FMSVFTSAFLISHIMLV gave an amyloid nucleation score of 0.21 ± 1. As for PYALWGIRESHLFQKCWSGM, the figure is 3.33 ± 0.099; as for VIYLHVYGCVNLVSVLVHSL, 1.87 ± 0.12.

With ISDFQACIRGDRWDEKGYIS, the amyloid nucleation score result was “inactive”. Substance CVSADPFCPIEQFNVMILAL came in with an amyloid nucleation score of -0.663 ± 0.42. Next, LRAGLMHGWMRFRCTRVACV: -0.914 ± 0.64. CRMYRSRCNCMCDRVVEMWG came in with an amyloid nucleation score of -0.407 ± 0.4. With CFCLPSNSNI, the amyloid nucleation score came to 1.19 ± 0.09.

For the substance CKCPYFLCIRFWDVDSAMLS, the amyloid nucleation score amounted to 2.21 ± 0.076. Next, RLNVISIQNAIMRVVRTKRF: 3.61 ± 0.12.

On to QVYLS, for which the amyloid nucleation score was -1.17 ± 0.62. Next, KFIPLINIRTQL: “inactive”; DNYSRCGICWVSLRVLYVRR: “inactive”; WTVRSARFWMSKQVVFSTTV: 0.812 ± 0.5. As for CRVRVTFG, the figure is -0.481 ± 1.1; as for YTRWWLWWGFNNCWRYWSEK, -0.96 ± 0.55; as for YKSSGLLSYTSIGNVDIYFV, 6.26 ± 0.079. Take VASRFDSSYMCKMAFI: the amyloid nucleation score is -0.651 ± 0.54. As for LMLVVQALNHAYLLQVMSCT, the amyloid nucleation score was 0.805 ± 0.67. As to IATYIR, the amyloid nucleation score was -0.179 ± 0.63.

As for HRYSRLRRVHYSYRSKGLNH, the amyloid nucleation score result is “inactive”. As for GYVWDVIGKWGTLRILRVSK, the figure is -0.498 ± 1.1; as for FTKSKWLWSRAAFLRIDRW, 0.799 ± 0.74; as for VLDFLVSCADYSWSLNNCES, -0.91 ± 0.76. As for YFMVHIMGTVKIGRW, the figure is 3.13 ± 0.098; as for SDFIPGKMCLNCLWWFVPTR, -0.496 ± 0.36; as for RLFCSAVAH, 0.308 ± 0.44. As for NTFQSKDRGQWCSTRNAYKG, the figure is -0.772 ± 0.45; as for RGVVGLDSIRWPSFGAVMKF, -0.757 ± 0.48. On to IYMRRCSVLGSHCH, for which the amyloid nucleation score amounted to 0.081 ± 1.1. Next, CLGFGRSSPTGYNTCVVRNY: -0.493 ± 1.1. As for SSMILLVYCPYVPWNRSRR, the figure is 4.8 ± 0.041; as for WFMERVFYNSTNSTQLFEWV, “inactive”; as for VIKMVMEVPVTGFPRSRNSF, -0.369 ± 1.1. As for CARNTIAWVSNGMEFGSTGG, the figure is -0.582 ± 0.76. Regarding TFVLSNC, the amyloid nucleation score was -0.356 ± 0.65. Next, LQMPVVF: -0.577 ± 0.26.

The substance KAKLMKRSFWMWSCLLCFR gave an amyloid nucleation score of 0.912 ± 0.74. Next, ICKGVRKIWSFGDMSWCRES: “inactive”; RSFEVKLFARSLKHIPDLTP: 1.02 ± 0.35; GECRCYHQTCGFHCNLGFGY: 4.7 ± 0.08. As for VREGSNRVSRFHNGWHQSGL, the figure is -0.555 ± 0.79; as for NWLKYFYVSDFQWWKGYPHV, -0.067 ± 0.36. As for CPISCTYMEYTSWSSSRC, the figure is 1.18 ± 0.44.
